In paper PMC2139968 (The Journal of Cell Biology, 1997):

Molecular target: F-actin (rabbit, UniProt P68135 1-377)
Assay: co-sedimentation

B1: His6-neurabin (natural protein)
chain: not shown
- stoichiometry N: ~8 actin molecules per His6-neurabin molecule
